Source: a protein production outcome set (Wang et al. 2014)
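Also: failed if final PepcDB status was selected cloned or expressed and not failed if soluble or beyond.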

Assay: label from the status in PepcDB records
With “MSNSTEPALAIITVTYSPGKHLGAFLSSVKEATAQPTYVVLADNGSVDGVPEAAAQADPSVEFFPTGGNIGYGSAINAAVRKLAPLRESGKINAEFFVLSNPDVVFEPGSIDAMVQCASRHPQAADIGPYIRQSDGSAYPSARQVPTIKNGVGHALFSSVWPSNPWSRAYRDNRDMTTERTAGWLSGSCLLVRWDAFEQIGGFDERYFMYMEDVDLGDRFGRAGFDNVFCPDAVITHAVGHAAGKHPEKMLPAHHDSAYRFQADRHPGLRYLPLRVLLRVGLKLRAVVAVAAAKFKLEHHHHHH” the protein production was “not failed”. With “MSNTVRAISPDITLFNKTLTFQEISQNTREAVIYIHGGAWNDPENTPNDFNQLANTIKSMDTESTVCQYSIEYRLSPEITNPRNLYDAVSNITRLVKEKGLTNINMVGHSVGATFIWQILAALKDPQEKMSEAQLQMLGLLQIVKRVFLLDGIYSLKELLVEYPEYDCFTRLAFPDGIQMYEEEPSRVMPYVKKALSRFSIDMHLVHSYSDELLTLRQTNCLISCLQDYQLSFKLYLDDLGLHNDVYKNGKVAKYIFDNIC” the protein production was “not failed”. For “MSNYNVSLVGPAPWGFRLQGGKDFNMPLTISSLKDGGKASQAHVRIGDVVLSIDGISAQGMTHLEAQNKIKACTGSLNMTLQRASAAAKSEPVAVQKGEPKEVVKPVPITSPAVSKVTSTTNMAYNKVPRPFGSVSSPKVTSIPSPSSAFTPAHAATSSHASPPPVAAVTPPPLSASGLHASANPSAAQCSSPPNTGKPAVHVPRQPTVTSVCSESAQELAEGQRRGSQGDIKQQNGPPRKHIVERNTEFYHIPTHSDASKKRLIEDTEDWRPRTGTTQSRSFRILAQITGTEHLKESENDNAKKANSTPEPSQQSASPLSAAESLESPGSNRPVVAGLRSAAAFKPVGSTSVKSPSWQRPNQAAPSTGRISNSASSSGTGAPMKPAVGPPQPSDQDTLVQRAEHIPAGKRTPMCAHCNQAIRGPFLVALGKSWHPEEFNCAHCKNTMAYIGFVEEKGALYCELCYEKFFAPECGRCQRKILGEVINALKQTWHVSCFVCVACGKPIRNNVFHLEDGEPYCETDYYALFGTICRGCEFPIEAGDMFLEALGSTWHDTCFVCSVCCESLEGQTFFSKKDKPLCKKHAHSVNF”, the protein production was “failed”. In the case of “MSPEGAERYDRNCDHQFQKGHVLIEMMGIKKGDFVLDVGCGTGRQALNVAGIIGPAGKLTGIDPSSYRIELARKKFEGDSSGNVRFLVRQAENLQDIPDNSINHAYFCSSFHWVDDKKTALNEIFRVLRPGGKVGMTTLDRNSPNTMKALIDPILAKFGIERRHEWHRGMKKVTAPELHDLLSGAGFTSISIEPRAVPRKYNSPEEFLQHPEEKDSSRGILRDISNETLEKLRQEITEEFRKAQTPEDIGFGNITLFAIATKAQEGLEHHHHHH”, the protein production is reported as “failed”. For “MSPENKICMEQSEDGDLDAGDELFEEVDGDGKGEIFANRELLNIDHVPDENRIVGRDEHITELANEIGPAVTGSPPNSVILYGKTGSGKSLVANHVMERARREAQRRDRRLATVTVDCAQSRGEADTVQTIADKINRSTSGVTVPTRGISTNEYYNRLWQILGTEYDAALITLDEVDRLSDDDILMILSRAREAGKVDVPIGIISISNKVNFREQMTERVKSSLGHNEMIFDPYDGEQLRQILENRKDAFQEDILMPGVIPKTAALAAQRHGDARKAIRLLRHAGDYAKTNNIGTVKESHLELAQEQAEVERLKELISGLPPHSKYVLYALANLTDGTTNSNDWFRTTVIYDVYEEVCKTEATDTLTTDTIRGLLNELAFLEITESNQEHGGMGKGTYKEHRLLWDPNVVFKMNPGSAQVDTDR”, the protein production was “failed”. With “MSPIDEFTYIKQNKIVYDSNSLIQLYFPIMGSDAMALYDYFVHFFDDGIRRHKFSEVLNHLQYGMPRFQDALVMLTALDLLTVYQATGTYLVKLNQAMSNELFLSNPIYRRLLEKRIGEVAVAELDMKIPKNARDISKKFTDVFSDLGQPKQEVNRSKNVFDLESFKRLMMRDGLRFNNEKDDVLGIYSVSELYHLNWYDTYQLAKQTAINGMIAPQRMKVQQNEGQHIKDNQSFTNNEKVILRESKNDSALVFLEKIKRSRKAVTTSGEKTLLEDLAKMNFLDEVINVMVLYTLNKTKSANLNKAYIMKVANDFAFQNVMTAEDAVLKIRDFSDQKVRTKTETKKKQSNVPEWSNPDYKDEVSPEKEIELEQFKTDALKRLERLGKD” the protein production was “not failed”. With “MSPIHVRAHPGDVAERVLLPGDPGRAEWIAKTFLQNPRRYNDHRGLWGYTGLYKGVPVSVQTTGMGTPSAAIVVEELVRLGARVLVRVGTAGAASSDLAPGELIVAQGAVPLDGTTRQYLEGRPYAPVPDPEVFRALWRRAEALGYPHRVGLVASEDAFYATTPEEARAWARYGVLAFEMEASALFLLGRMRGVRTGAILAVSNRIGDPELAPPEVLQEGVRRMVEVALEAVLEV” the protein production was “not failed”. In the case of “MSPIVSVPDITAPVENVPAILPKVVPGELIVNKPTGGDSDELFQYLVDILASPVYDVAIESPLELAEKLSDRLGVNFYIKREDKQRVFSFKLRGAYNMMSNLSREELDKGVITASAGNHAQGVALAGQRLNCVAKIVMPTTTPQIKIDAVRALGGDVVLYGKTFDEAQTHALELSEKDGLKYIPPFDDPGVIKGQGTIGTEINRQLKDIHAVFIPVGGGGLIAGVATFFKQIAPNTKIIGVEPYGAASMTLSLHEGHRVKLSNVDTFADGVAVALVGEYTFAKCQELIDGMVLVANDGISAAIKDVYDEGRNILETSGAVAIAGAAAYCEFYKIKNENIVAIASGANMDFSKLHKVTELAGLGSGK”, the protein production is reported as “not failed”. With “MSPSDSSGDSDDPARSRAAVRRTYEDIGDHFSKTREYAWPEVESFVDESGSVGTALDAGCGNGRHAELLAGVADRVVGLDASRALLRAATDRVGDSVALLQGDATRLPLAAGAVDLAVYVATLHHLPSQTARRASLDELARVLAPGARALVSAWSTAHDHFDADPDADEGFDTTVDWTLPGGETVPRFYHIYAPAEFERDVADSDLRLVSMELSSGNCYGVVEPEGKRT” the protein production was “failed”. In the case of “MSQEDITGKDRLQELIGADYRLQWIIGHGGMSTVWLADDVVNDREVAIKVLRPEFSDNQEFLNRFRNEAQAAENIDSEHVVATYDYREVPDPAGHTFCFIVMEFVRGESLADLLEREGRLPEDLALDVMEQAAHGLSVIHRMDMVHRDIKPGNMLITANGIVKITDFGIAKAAAAVPLTRTGMVVGTAQYVSPEQAQGKEVTAASDIYSLGVVGYEMMAGRRPFTGDSSVSVAIAHINQAPPQMPTSISAQTRELIGIALRKDPGRRFPDGNEMALAVSAVRLGKRPPQPRTSAMMAQAEAPSPSESTAMLGRVARPATITQEAAPKRGSGIGIGLFIAALLAVIIGAVIYAGTTGILFNDTPEETTTPETITETYTPTVEETTSQWVPPTPPTRSTFTEPETTSHRPTTSEESTSEEPTTEAPTSSRTVPQIPTSTPRTSASVPVETNAPADDLIDAVNGLLDVGGAQ”, the protein production is reported as “failed”. For “MSQERTDGDLRNTGLSLKHDREWDYELDRIVEAVEERDAEKVGLQFPEGLKRRGPAVADDLREELPDDVTVLLSGQPCYGACDLDTYMMRRTDVFVHFGHSPMKESDKIIYVPLFSNVDVFPIMEQAREEQLADPEDDPDVGLVTTAQHMNKFDEMREWLEERGYTVHTRRGDERLTHEGQVLGCNYASADVDADQMLYVGGGKFHPLGLAMEHPEKHVVIADPVNNVVTVADTEKFMKQRYGAVHRAMDAESWGVIFCTKIGQGRWDQAEEIVENNENAYLITMDEVTPDRLTNFGMDAYVNTGCPRITTDDGPQFKKPMLTPGEYEIAIGEKPLDSLEFDTFHGTWLEHHHHHH”, the protein production was “not failed”. With “MSQFDRIHLVVLDSVGIGAAPDANDFVNAGVPDGASDTLGHISKTVGLAVPNMAKIGLGNIPRPQALKTVPAEENPSGYATKLQEVSLGKDTMTGHWEIMGLNITEPFDTFWNGFPEDIITKIEDFSGRKVIREANKPYSGTAVIDDFGPRQMETGELIIYTSADPVLQIAAHEDIIPLEELYRICEYARSITMERPALLGRIIARPYVGEPGNFTRTANRHDYAVSPFEDTVLNKLDQAGIDTYAVGKINDIFNGSGINHDMGHNKSNSHGIDTLIKTMGLSEFEKGFSFTNLVDFDALYGHRRDPHGYRDCLHEFDERLPEIISAMRDKDLLLITADHGNDPTYAGTDHTREYIPLLAYSPSFTGNGLIPVGHFADISATVADNFGVDTAMIGESFLQDLV” the protein production was “failed”. With “MSQIEAVFFDCDGTLVDSEVICSRAYVTMFRQFGITLELTEVFRRFKGVKLYEIIDTISKEHGVALAKAELEPVYRAEVARLFDTELEAIAGANTLLESIKTPMCVVSNGPVSKMQHSLGKLGMLHHFPDLLFSGYDIQRWKPDPALMLHAANAMKVNVEKCILVDDSSAGAQSGIAAGMEVFYFCADPHNKPIDHPNVTTFTDLAQLPGLWKARGWEI” the protein production was “not failed”. With “MSQIWFERILRWRKKAQRFLQGRYARFDELNRTLLLTSVVLALINIFTGYLWVRLLILITVAYVYYRFFSKHIHPRLNENQWFILRKQRLMQKVHAFRKRHMTQKEYRYFKCPKCQQSLRAPKGRGTIKVTCSNCQNQFIKKV” the protein production was “failed”. For “MSQMSPGQARVVDPILSTHARGYRQSTLIGKKLFPVAPVAQYGGKILTFGKEAFRLYNTKRAPGANTKRIDFGYEGDPYSIVPSALEAKVPRELMRDASQVPGIDLGARSVNTVLRIMALAHEHECAQIALDPAKYNADHKVKLVGSARWTSPDSDPTKDVETAKEAIADSIGMEPNRLMLSRKALSACKYHPKLIERVKYTRAESITIDMLKALWEVEEIVVGTARVATGANDSFGDVWGPDVWLGYVSDNPDPSVEEPSFGYTYQIEGHPLVEVPYWDNNAKSWIYGVSDDNTPALSGMLAGYLIEDAGLPAA”, the protein production was “not failed”. For “MSQPNFLLFITDQHRADHLGAYGNSQIRTPALDALARRGWLAERFYVASPICMPNRATLMTGRMPSAHGARHNGIPLSQRATTFVERLRQAGYGTALVGKSHLQNMTGNGPVWPRPQDPPAEGEAWAPEPGDYDQEWGPLWREDPAHDLATPFYGFSQVDLAVDHGDRVWGHYWRWLQREHPEVAAQAGPDHALPAPGFELVRAGQAWRTRVPESCSTTAYLGRRTMQALDGYAQRGQPFFIQCSFPDPHHPFTPPGKYWDMYRPEDVELPASFHASAAAGRQPPPHVQWMYAQRDSGRAVKHTPAMFACTEREAREAIALNYGSISHIDHTVGEVLAHLQRLGLADNTVVIFTSDHGDYLGDHQLLWKGPVHYQSVIRTPFIWADPAGAQGARSDALCSTTDIAPTILARAGLLPYNGIQGADLGALMRGEQAAPREAVLIEEEGQRVMFGFDKRVRMRTLQTGRYRMSVYHGVSWGELYDLREDPLELRNLWDEPGSAALRQDLLFQLAQNLIGHGETSPHPTALA”, the protein production was “failed”. With “MSQPSALPAADSLAALHPGFKSSALVWLGVMVALWGFSWPVMKICVGLAPPLWLAAIRFTSSGLCLFAFLACRGELRLPPRADWPIVASVGGLQMMAFTGLGLVAMQYTDAGRAALLAYTTPLWAVVTAWIAFGQRPTAAQGVALCVGLSGVAVICSPADMDWGDSTVLLGNALLLLSAMCWSFVILHVRRHRFTARPIDLAPWQMLLAALPLIVIAASVDGSPLTIAWTPELIGFLIYFGPIATSACFVISSEYGRRVSAFAMSNITLGVPVIGMLSSIFLLGERVTVPLIIGLTLIVSGVALAALAVNRKAAAGRADTALRSQAGKANWPTA” the protein production was “failed”. In the case of “MSQPVAFVTGCSSGIGRALADAFQRAGYRVWASARKEDDVRALAEAGFQAVQLDVNDAAALARLAEELGVEAAGLDVLVNNAGYGAMGPLLDGGVEAMRRQFETNVFAVVGVTRALFPLLRRKSGLVVNVGSVSGVLVTPFAGAYCASKAAVHALSDALRLELAPFGVEVLEVQPGAIASNFGASASREMDSVVDERSPWWPLRRQIQARAAASQDNPTSAEDFARQLLAAVQRRPRPPLVRIGNGSRALPALARWLPRGLLERLLKKRFGLDTRL”, the protein production is reported as “failed”. With “MSQQKSDFADDADIDESLDELASEETIEETVENLEANGFEVIVVNSADDALAELQSLIPAEASVMNGHSTTLEEIGFDEYLSDGDHGWESLPEEIWSIDDDAKRQAARRESQTADYFLGGINGISQTGELVAADRSGSRIGAYPFAASNVVIVSGVNKIVPTLEDALDRLETVAYPLENERAKEAYGVDSAIAKQLILRQELEEGRTTVVLIREHLGYLEHHHHHH” the protein production was “not failed”.
